US10138280B2, “Polypeptides targeting glycosylated MUC2 proteins, methods of synthesis, their nucleic acids and uses thereof” (INSTITUT PASTEUR, priority 2011, dated 2018)

How the values were obtained:
human colonic mucus = target: T1, human colonic mucus (Homo sapiens, UniProt Q02817); test: Staining of human colon explants, two-photons microscopy
T1 construct: Segments of human colon (ascending, descending and sigmoid colon) were obtained from fully informed patients undergoing surgery; from tissue; host or cells: healthy human colon segments (live explants, mucus collected from them, Carnoy- or formol-fixed sections)
Description: FIGS. 3A-3B. Cy5-MUB70 colonic mucus binding property. (FIG. 3A) HT-29 MTX living cells were incubated for 2 h with Cy5-MUB70 in a serum-free media. The resulting fluorescent signal (red) was visualized at the surface of the cell layer using an epifluorescent microscope. Z-projection, performed using ImageJ software, allowed 3D localization of Cy5-MUB70 fluorescence signal in the mucus layer. Bar is 10 μm (FIG. 3B) MPE and SHG imaging of the binding of Cy5-MUB70 to the human colonic mucus. […] Human tissue autofluorescence is detected in the same red channel as Cy5.
FIGS. 8A-8D. (FIG. 8A) Cell toxicity of Cy5-MUB70 tested on HT-29-MTX and Hela epithelial cells. Cell survival was assessed using Sytoxgreen dye on cultures exposed to 1 μg/mL Cy5-MUB70 from 0 to 10 h, as indicated. […] Resulting fluorescent staining was assessed using a two-photons microscope (see Methods). Z-projection, performed using ImageJ software, allows 3D localization of Cy5-MUB70 fluorescence signal. […] Human tissue autofluorescence is detected in the same red channel as Cy5. […]
Two-photons microscopy imaging of live healthy human colonic segment was performed using a commercial laser-scanning microscope (LSM710, Meta, Zeiss, Germany). Tissue autofluorescence and Cy5-MUB70 (1 μg·ml^−1) were detected using multiphoton excitation (MPE, red) and collagen was detected using second harmonic generation (SHG, green). […]

[1] = target: T2, mucus of human colonic mucinous carcinomas (Muc2) (Homo sapiens, UniProt Q02817); test: Fluorescent staining of human colonic mucinous carcinoma samples
T2 construct: five different samples collected from patients diagnosed with colonic mucinous carcinomas; from tissue; host or cells: human colonic mucinous carcinoma samples, fixed, paraffin embedded
Description: FIGS. 24A-24B. Comparative human colonic mucus staining using MUB70-Cy5 on healthy tissues and mucinous carcinomas (Coic et al, JBC, 2012 (41)). Fluorescent staining of human colonic mucus was performed by the addition of 1 μg/mL of the corresponding Cy5-conjugated peptides with Phalloidin-RRX (1:100) on formol fixed, paraffin embedded samples. Image acquisition was performed using a fluorescent confocal microscope (see Methods).
Ex vivo human colon samples were obtained from Dr. E. Labruyère (Institut Pasteur) and tissue processing was performed as described previously and stored in serum free RMPI media (surgical procedure is described herein). Human mucinous carcinoma formamide fixed samples were obtained from Dr. T. Lazure (Hôpitaux Universitaires Paris-Sud, Kremlin-Bicêtre) and Pr. I. Sobhani (Hôpital Henri Mondor, Créteil). Rabbit colon and ileum samples were collected on naïve New Zealand white rabbits weighting 2.5-3 kg and fixed in PFA 3%. […]
As colonic mucinous carcinomas are characterized by abnormal overproduction of Muc2 in the colon mucosa (40), the inventors have hypothesized that Cy5-MUB70 could be used as a novel fluorescent marker for the diagnosis of this pathology. […] As shown previously on a healthy colon (FIG. 3B), the luminal mucus secreted fraction is detected by Cy5-MUB70 (FIG. 24A, top panel). […]

- incubation time after which probe is widely detected in mucus layer (human colonic mucus; 1 mm thick mucus layer, human colon explant): 90 min
- colocalization with Muc2 in colonic mucinous carcinomas ([1]; mucus accumulation within the colonic mucosa, associated with tumor cells): colocalizes with the presence of Muc2
B1: Cy5-MUB70: Cy5-labelled MUB70 polypeptide, labelled via Cy5 maleimide on N-terminal cysteine (conjugate)
peptide: CVHVQYIDGETDQMLRQDDLDGYTDETIPYSTAEGIKKFEGDGYELFKDNFPAGEKFDNDDTNDQFYTVIF
- mucus layer staining on human colon explants (human colonic mucus; ex vivo, 1 μg/mL, mucus width around 1000 μm, epithelium and lamina propria unstained): stained heterogeneously on the whole width
- staining of colonic mucinous carcinoma samples ([1]; five samples from patients, 1 μg/mL): specific staining was observed within the mucus accumulation areas
